In US9447158B2:

Biological target: MAPKAP Kinase II (MK2)

## WLRRIKA
  % of … [SEQ ID NO: 115] Reaction Velocity at an Inhibitor Concentration of 100 µM: 394%
